# In paper PMC7056357:
# Where two headings read alike, the source gives them in different places.
# T1: CXCR4-mTFP1 (human), P61073
# T1 chain: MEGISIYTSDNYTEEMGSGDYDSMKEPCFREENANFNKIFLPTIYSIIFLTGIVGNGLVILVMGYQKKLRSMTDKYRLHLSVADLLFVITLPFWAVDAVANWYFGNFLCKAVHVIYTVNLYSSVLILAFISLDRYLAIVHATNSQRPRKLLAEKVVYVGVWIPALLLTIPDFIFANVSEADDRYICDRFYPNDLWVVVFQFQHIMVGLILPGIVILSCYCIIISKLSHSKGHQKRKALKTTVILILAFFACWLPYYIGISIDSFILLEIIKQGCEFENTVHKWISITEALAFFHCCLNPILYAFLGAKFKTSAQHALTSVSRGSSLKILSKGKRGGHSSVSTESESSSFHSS
# T2: CXCR4-eYFP (human), P61073
# T2 chain: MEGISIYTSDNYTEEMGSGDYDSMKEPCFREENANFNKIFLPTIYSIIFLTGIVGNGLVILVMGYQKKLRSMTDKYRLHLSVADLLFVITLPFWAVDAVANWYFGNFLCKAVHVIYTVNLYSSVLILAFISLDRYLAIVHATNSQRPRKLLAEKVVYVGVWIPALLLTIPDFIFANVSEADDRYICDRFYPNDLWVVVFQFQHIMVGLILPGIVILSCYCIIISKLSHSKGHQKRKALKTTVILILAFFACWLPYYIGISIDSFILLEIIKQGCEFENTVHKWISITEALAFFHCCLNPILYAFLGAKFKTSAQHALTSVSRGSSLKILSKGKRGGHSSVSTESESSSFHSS
# B1: CXCR4-mTFP1, P61073 1-352 (receptor)
# chain: MEGISIYTSDNYTEEMGSGDYDSMKEPCFREENANFNKIFLPTIYSIIFLTGIVGNGLVILVMGYQKKLRSMTDKYRLHLSVADLLFVITLPFWAVDAVANWYFGNFLCKAVHVIYTVNLYSSVLILAFISLDRYLAIVHATNSQRPRKLLAEKVVYVGVWIPALLLTIPDFIFANVSEADDRYICDRFYPNDLWVVVFQFQHIMVGLILPGIVILSCYCIIISKLSHSKGHQKRKALKTTVILILAFFACWLPYYIGISIDSFILLEIIKQGCEFENTVHKWISITEALAFFHCCLNPILYAFLGAKFKTSAQHALTSVSRGSSLKILSKGKRGGHSSVSTESESSSFHSS
# B2: CXCR4-eYFP, P61073 1-352 (receptor)
# chain: MEGISIYTSDNYTEEMGSGDYDSMKEPCFREENANFNKIFLPTIYSIIFLTGIVGNGLVILVMGYQKKLRSMTDKYRLHLSVADLLFVITLPFWAVDAVANWYFGNFLCKAVHVIYTVNLYSSVLILAFISLDRYLAIVHATNSQRPRKLLAEKVVYVGVWIPALLLTIPDFIFANVSEADDRYICDRFYPNDLWVVVFQFQHIMVGLILPGIVILSCYCIIISKLSHSKGHQKRKALKTTVILILAFFACWLPYYIGISIDSFILLEIIKQGCEFENTVHKWISITEALAFFHCCLNPILYAFLGAKFKTSAQHALTSVSRGSSLKILSKGKRGGHSSVSTESESSSFHSS
# Experiments:
# [1] = biological target: CCR5-mTFP1 (UniProt P51681)
# [2] = biological target: CD4-mRFP (human) (UniProt P01730); experiment: multicolour TIRF-dSTORM with interaction factor analysis
# [3] = biological target: T1, CXCR4-mTFP1 (human), P61073; conditions: remark: other sources report otherwise
# [4] = biological target: T1, CXCR4-mTFP1 (human), P61073; experiment: number and brightness; conditions: remark: other sources report otherwise
# [5] = biological target: T2, CXCR4-eYFP (human), P61073; experiment: multicolour TIRF-dSTORM with interaction factor analysis; conditions: remark: other sources report otherwise
# UniProt P51681, sequence (P51681 whole entry): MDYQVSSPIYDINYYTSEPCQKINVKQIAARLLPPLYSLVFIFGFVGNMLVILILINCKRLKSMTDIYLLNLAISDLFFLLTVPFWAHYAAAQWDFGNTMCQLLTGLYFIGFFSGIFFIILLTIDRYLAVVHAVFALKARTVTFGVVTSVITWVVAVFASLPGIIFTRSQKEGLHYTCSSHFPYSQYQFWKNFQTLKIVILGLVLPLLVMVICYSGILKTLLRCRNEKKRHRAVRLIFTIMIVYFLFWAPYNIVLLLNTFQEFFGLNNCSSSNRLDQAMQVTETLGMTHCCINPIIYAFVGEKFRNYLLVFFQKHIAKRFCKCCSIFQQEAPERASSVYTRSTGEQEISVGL
molecule,measurement,setting,value
HIV-1 JR-FL Env on HIV_(JR-FL) virions (complex),CCR5 molecules bound to a single Env trimer,[1],2
same,probability of 3 CD4 molecules engaged with 1 Env spike,[2],0.36
same,probability of 4 CD4 molecules engaged with 1 Env spike,[2],0.1
B1,stoichiometry N,[3],2
same,stoichiometry N,[4],2
B2,stoichiometry N,[5],2
